Here are results for four molecules from patent publication US8809027B1, “Genetically modified organisms for increased microbial production of 3-hydroxypropionic acid involving an oxaloacetate alpha-decarboxylase” (OPX Biotechnologies, Inc., priority 2009, dated 2014).

Positions count from the first letter of the chain named. Names and notes keep the numbering of the source.

Common to all, as to assay type: biochemical
Series [1] in a line: GC-MS confirmation of 3-HP production and pH dependence of candidate enzymes (coupled reaction with YdfG). As to conditions: 3-HP by GC-MS at pH 5.5, pH 6.0 and pH 6.8; 5 mM oxaloacetate; 37° C., at least 12 hours. The protocol:
Conformation of 3-HP production as well as assessment of the pH dependence of each candidate enzyme was performed as described above, except that coupled reactions with YdfG were evaluated for 3-HP production by GC-MS. Reaction conditions consisted of 50 mM PIPES pH 6.8, 2 mM thymidine pyrophosphate, 10 mM dithiothreitol, 4 mM magnesium chloride, 1 mM NADPH (EMD Bioscience), 0.075 mg/mL purified YdfG (Molecular Throughput), and 5 mM oxaloacetate (unless otherwise stated). All chemicals were obtained from Sigma-Aldrich unless otherwise stated. Reactions were performed at 0.6 mL volumes in triplicate and were initiated with the addition of 600 micrograms of purified protein. In addition, a negative control lacking protein was also performed with each set. Reactions were allowed to proceed at 37° C. for at least 12 hours. […] Soluble monomeric 3-HP is quantified using GC-MS after a single exaction with ethyl acetate from a reaction sample. […] A standard curve of known 3-HP concentrations is prepared at the beginning of the run and a known quantity of ketohexanoic acid (1 g/L) is added to both the standards and the samples to act as an internal standard for Quantitation, with tropic acid as an additional internal standard. […] 3-HP is quantified using a 3HP standard curve at the beginning of the run and the data are analyzed using HP Chemstation. […]

Series [2] in a line: GC-MS analysis of 3-HP produced in the spectrophotometric assay samples. As for the experimental part: A coupled assay was developed in order to biochemically assess the oxaloacetate alpha-decarboxylase activity of the candidate enzymes. The coupled assay used exogenously-added purified E. coli YdfG protein, which converts malonate semialdehyde to 3-HP with the concomitant conversion of NADPH to NADP^+ (FIG. 5). […] 3-HP is also detectable by standard analytical methods, for example HPLC and GS-MS. Assays were performed as 200 microliter reactions in a 96-well plate format using a Molecular Dynamics SpectraMax 384 microplate reader with SoftmaxPro software (Molecular Dynamics, Sunnyvale Calif.) to quantitate the rate of change in the 340 nm absorbance. […] The progress of each reaction was monitored for 20 minutes during which measurements were made every 20 seconds. […] Once the reaction time course was read and the slopes of each well were calculated, the specific activities over the negative control of each candidate protein were calculated. All values reported are the average specific activities measured in triplicate.
Activity of KGD was not measured by the spectrophotometric assay.
Conformation of 3-HP production as well as assessment of the pH dependence of each candidate enzyme was performed as described above, except that coupled reactions with YdfG were evaluated for 3-HP production by GC-MS. […]

Series [3] is described as follows: Coupled spectrophotometric assay of oxaloacetate alpha-decarboxylase activity (purified YdfG, NADPH absorbance at 340 nm). As to conditions: for Average Specific Activity: oad variants versus native Oad in the spectrophotometric assay; for Fold Increase in oxaloacetate alpha-decarboxylase specific activity: relative to native (parent) Oad lacking mutations, in vitro. The protocol: A coupled assay was developed in order to biochemically assess the oxaloacetate alpha-decarboxylase activity of the candidate enzymes. The coupled assay used exogenously-added purified E. coli YdfG protein, which converts malonate semialdehyde to 3-HP with the concomitant conversion of NADPH to NADP^+ (FIG. 5). […] 3-HP is also detectable by standard analytical methods, for example HPLC and GS-MS. Assays were performed as 200 microliter reactions in a 96-well plate format using a Molecular Dynamics SpectraMax 384 microplate reader with SoftmaxPro software (Molecular Dynamics, Sunnyvale Calif.) to quantitate the rate of change in the 340 nm absorbance. All assays were conducted at 37° C., and the instrument was allowed to mix the plate for 1 second prior to each measurements. The progress of each reaction was monitored for 20 minutes during which measurements were made every 20 seconds. Reaction conditions consisted of 50 mM PIPES pH 6.8 (unless otherwise stated), 2 mM thymidine pyrophosphate, 10 mM dithiothreitol, 4 mM magnesium chloride, 1 mM NADPH (EMD Bioscience), 0.075 mg/mL purified YdfG (Molecular Throughput), and 5 mM oxaloacetate (unless otherwise stated). All chemicals were obtained from Sigma-Aldrich (St. Louis, Mo.) unless otherwise stated. Reactions were initiated with the addition of 10 microliters of concentrated purified protein to each reaction well. In addition, a negative control was performed with each experimental set to control for the rate of background NADPH oxidation. Once the reaction time course was read and the slopes of each well were calculated, the specific activities over the negative control of each candidate protein were calculated. All values reported are the average specific activities measured in triplicate.

B1: KGD: alpha-ketoglutarate decarboxylase (kgd) from Mycobacterium tuberculosis, penta-histidine tag, purified (protein, listed as Mycobacterium tuberculosis)
chain: MNLRGTAARRRHRATGDTLDARQLVRQQLRQLQTETRPGALVRWFLLDPKELFDIFVTIQGFTQTTTRQRRQLLQTHNCQIITVVFRLACRQFIIQLTGGQQNTANFIAVADTILVGRFLQDATEFNLGKILNLRNRRLVAQHGFRGKHDQRTLDAVQRVAAQQVKVIGRGARHRDRHATLSPQLQKALNARRRVVRALTLVAVWQQQNNVGQLTPFRFARADELVNDRLGTINKVAELRLPQHNRVWIANGITVLKTHSRVFRQRRIINQELTTGRAAVAVSRQQLQRGELLAGVTVDQHRMTLAKGATTRVLTAQTDQLALSNQAAQRQQLTKRPVNLTLIRHLTTLFQHRLNARVCRETVRQRQEGITDTCQQGFVNSGRQARWDHLVRLDALRRLDAVLLQFAHFVEHTLQLALVIAQRILRLFHADVATTDQSLGVGFTGATLGVHDVIDIRIGHRWIVTLIMTTTTIAQHVNNNVLFKALAEVNCQTRNPDTRFWIVAVHVEDWRTDHLRHIRAVLARTRVFRSGGEADLVVHNDVNRTTHTIARQICQIQRLRNNALTREGRITVQHQRNDGECTLAVGVNGTVVQQVLLRTHQTFQHWIDRFQMGRICRQGNLNIVIAKHLQIQTRRTQVVLDIAGTVSLGRVQIAFKLRKDLRIRFAHDVRQDIQATTVRHANDHFIQTMLGTLVNRRVHHWNNRFRTLQAKTLLAHILGLQEGFKRLRCVQFRQDVLLLSNGRFDVLRLDTLLQPLLLFRVQNVRVLNTDVTAVRVAQQTQHVTQLFVLSTRETVNLKDAVQVPQSQAMRQHLQIRMRTKARLIQAQRVGVRHQMAAVAIGRDQVHHTCVLVNDRVRIIGAPTHWQVRDAQLAEDLIPEAIRQQQFMNGTQEVTAFRTLNDTVVVGRSQGNQFANTQLSDAFLGRALELRRIFHRTDTDDSTLTWHQAWHRVHRANRARIRQRNRNASEVLGGQFTITSTTDDVLVRGNELREAHRLATFDTGHHQRALAIFTLQVNSQTQIGVRRSNRRRLTVHLRVVAIHIRELLNRLNQSITQQMGKADFTTTRAFQLIIDHDTIIDQQFRWHSTHRGRRRHFQRRAHVLHDSSRRTTQDSNFIAFGWRRHRGLGGQSRHDTVARCGRVGRFRRRLRSRRCRTLSDQRAGHTSRLSSRLGSRLRAIVHQKLMPAWVNGRRIITKFTIHTNTRRVLSHHGYISFLKNSISQRQGRHKIYSKCIINTDNIL
modifications: penta-histidine tag
notes: alpha-ketoglutarate decarboxylase (kgd) from Mycobacterium tuberculosis, penta-histidine tag, purified
In the case of B1, the “pH of optimal activity” value in series [1] was determined as 6.8. In series [2] (Beginning [OAA] 5 mM, pH 6.8), the “Final [3HP]” value is 0.004 ± 0.001 g/L. The “3-HP production confirmed by GC-MS” value in series [2] (in the presence of 5 mM oxaloacetate) was 3-HP was produced.

B2: Mutant Oad 1: variant of Leuconostoc mesenteroides oad with mutations N45T, R249L, D302G, V418A and L476Q (protein)
chain: MTDTLTFNTKHLLEALFESGIRHFIVSPGSRSTPIALLLAEYAEQTNEIKLFVDVDERSAGFFALGIAKTLLEPVVLLGTSGTAIAEYMPAVAEAYAANIPLVVLSTDRPQELQFNGAPQTIPQSNLFGQLTKQAVLIRLQDMHSDVTEYIDFIVQKVVNLSITAPRGPIQINLPLRKPLMPVLDRQDEVHVQRVVFDKQSVQYRLPPITAKRLLILAGPNVLNSYDDSLKKFAIKNNVPVIADVLSQSLHTYTIHGIDVLLQAHKINADLKPDLVVRFGKTPVSARVLQWLKEENILTWHVGEDAGVDHTRHIVRAIKMAPHDFLESMHLTLSKNQIDFNQKWLSLPKVIKTRNEMNIITALDDAVPDDTHIFVANSMPIRDMDNFFTGNHTQRIYANRGANGIDGVISSALGMSAVAKQRSVLLTGDLTLFHDMNGLMMAKNYQLPLDIIVINNNGGGIFSFLPQAGAPKYFEQQFGTPLNIDIKKIADLYYIDYHQLNVPEALSQILQTPSKTTRLIEYKSDHQRNRDDHREVLEMLK
modifications: Leuconostoc mesenteroides
notes: variant of Leuconostoc mesenteroides oad with mutations N45T, R249L, D302G, V418A and L476Q
On to B2, for which, in series [3], the “Average Specific Activity” value is 0.0121 units/mg and the “Fold Increase in oxaloacetate alpha-decarboxylase specific activity” value (from here on “Fold Increase”) is 1.6 fold.

B3: Mutant Oad 3: variant of Leuconostoc mesenteroides oad with mutations R394C, D434G and T511A (protein)
chain: B2 chain with T46N, L250R, G303D, R395C, A419V, D435G, Q477L, T512A
modifications: Leuconostoc mesenteroides
notes: variant of Leuconostoc mesenteroides oad with mutations R394C, D434G and T511A
Turning to B3, in series [3], the “Average Specific Activity” value is 0.0222 units/mg and the “Fold Increase” value amounted to 2.8 fold.

B4: Mutant Oad 2: variant of Leuconostoc mesenteroides oad with mutation T479N (protein)
chain: B2 chain with T46N, L250R, G303D, A419V, Q477L, T480N
modifications: Leuconostoc mesenteroides
notes: variant of Leuconostoc mesenteroides oad with mutation T479N
Turning to B4, in series [3], the “Average Specific Activity” value is reported as 0.0173 units/mg and the “Fold Increase” value is on record as 2.2 fold.
